Results: publication PMC5812989, “Evaluation of HER2-specific peptide ligand for its employment as radiolabeled imaging probe” (Scientific Reports, 2018)
Where a SMILES comes first, the peptide text is derived from it. Where no end group is shown, it is not given here. The star is where a group is joined. DTPA = O=C(O)CN(CCN(CC(=O)O)CC(=O)O)CCN(CC(=O)O)CC(=O)*

Experiments:
[1] = parameters: species or system BALB/c nu/nu mice; settings: mouse, in vivo
Protocol: Four BALB/C nu/nu mice were used for the biodistribution studies. At the time of experiment, the average animal weight was 20.5 ± 0.9 g. Animals were injected intravenously (tail vein) with 3 µg (30 kBq) of ^111In-DTPA-A9 in 100 µL PBS. Since DTPA-A9 peptide resulted stable to serum proteolytic degradation in a range of 90 minutes (for details see Supplementary Information Fig. S6), at 1 hour after injection, a mixture of Ketalar-Rompun (20 µL of solution per gram body weight; Ketalar: 10 mg/mL; Rompun: 1 mg/mL) was injected intraperitonealy, and the mice were euthanized by a heart puncture using a syringe, pre-washed with diluted heparin (5000 IE/mL). Blood as well as brain, stomach, pancreas, lung, liver, spleen, kidneys, samples of muscle and bone, gastrointestinal tract (with its content) and remaining carcass were collected in pre-weighed plastic vials. Organs and tissue samples were weighed and measured for radioactivity using an automatic gamma counter. The tissue uptake values were calculated as per cent injected activity per gram of tissue (% ID/g) and per whole sample (% ID/sample). The gastrointestinal tract and the carcass uptakes were calculated only as % ID per whole sample. The radioactivity in the gastrointestinal tract with its content was used as a measure of hepatobiliary excretion.

[2] = In vitro peptide stability in serum (HPLC); type: in vitro ADME; settings: during one hour; 0.5 mg/mL, RPMI with 10% FBS, 37 °C
Protocol: Figure S4: In vitro Peptide Stability in Serum. A9 modified peptides at concentration of 0.5 mg/mL were dissolved in RPMI containing 10% of FBS (fetal bovine serum) and incubated at 37 °C. Samples (50 μL) were taken regularly (t = 0, 0.5, 1, 2, 3, 6, and 24 h) and mixed with 100 μL of CH3CH2OH (96%), for precipitation of serum proteins. The cloudy reaction sample is cooled (4 °C) for 15 min and then spin at 16,000 rpm for 2 min, to pellet the precipitated serum proteins^1. The chromatographic analysis of samples (30 μL injected for each injection) were performed on an Alliance HT WATERS 2795 system, equipped with a PDA WATERS detector 2996 using a […] C18 Waters xBridge (3 μm, 4.6 x 50 mm) column, with a linear gradient from 5% to 70% of 0.05% TFA in CH3CN (Solvent B) over 20 min at a flow rate of 0.2 mL/min. […] Results are mean of three independent experiments performed in duplicate.

[3] = test system: HER2-expressing BT474 cells; experiment: LigandTracer / InteractionMap kinetics of binding to living HER2-expressing cells; parameters: species or system human; settings: 1:2 interaction model, room temperature, 4, 12 and 36 nM, read-out: affinity, weaker binding site (low affinity interaction)
Protocol: For cell studies, the HER2-expressing breast carcinoma cell line BT474 (from ATCC) was used. The cell line was cultured in RPMI medium (Flow Irvine, UK) supplemented with 10% fetal calf serum (Sigma, USA), 2 mM L-glutamine and PEST (penicillin 100 IU/mL and 100 μg/mL streptomycin), all from Biokrom Kg, Germany.
Cells from the human breast carcinoma cell line BT474 were seeded on a local area of a cell culture dish (NunclonTM, Size 100620, NUNC A/S, Roskilde, Denmark), as described by Björke and Andersson[63]. The binding of ^111In-DTPA-A9 to living cells was monitored in real-time at room temperature using LigandTracer Yellow, using method established by Björke and Andersson[63]. In brief, the cell culture dish was placed on the sloping and rotating cell dish holder in LigandTracer Yellow, followed by a continuous monitoring of the radioactivity level along the rim of the dish. If the labelled peptide binds to the cells, an elevated signal will be recorded when the cells pass by the detector. […] Binding and dissociation curves were analyzed by InteractionMap software as described by Björkelund et al. to calculate affinity of ^111In-DTPA-A9 binding to living HER2-expressing cells.
Additionally, specificity of ^111In-DTPA-A9 binding to HER2 expressing cells was evaluated using pre-saturation of receptors by trastuzumab and by using ^111In-labeled scrambled DTPA-A9 (^111In- DTPA-S-A9). […]

Compound: CC(C)[C@H](NC(=O)[C@H](C)NC(=O)[C@@H](NC(=O)[C@H](CC(N)=O)NC(=O)[C@@H](NC(=O)[C@H](CC(=O)O)NC(=O)[C@H](CCC(N)=O)NC(=O)CN(CCN(CCN(CC(=O)O)CC(=O)O)CC(=O)O)CC(=O)O)C(C)C)[C@@H](C)O)C(=O)N[C@@H](C)C(=O)N[C@@H](Cc1c[nH]c2ccccc12)C(N)=O [^111In-DTPA-A9, metal not drawn] ({DTPA}-QDVNTAVAW-NH2)
- radioactivity in the gastrointestinal tract with content [1]: approximately 1 % of injected activity
- uptake, blood ([1]; iv, 1 h): 0.24 ± 0.04 % ID/g
- uptake, bone ([1]; iv, 1 h): 0.16 ± 0.13 % ID/g
- uptake, brain ([1]; iv, 1 h): 0.03 ± 0.03 % ID/g
- uptake, liver ([1]; iv, 1 h): 0.44 ± 0.04 % ID/g
- uptake, lung ([1]; iv, 1 h): 0.5 ± 0.3 % ID/g
- uptake, muscle ([1]; iv, 1 h): 0.01 ± 0.01 % ID/g
- uptake, pancreas ([1]; iv, 1 h): 0.13 ± 0.03 % ID/g
- uptake, spleen ([1]; iv, 1 h): 0.22 ± 0.01 % ID/g
- uptake, stomach ([1]; iv, 1 h): 0.27 ± 0.07 % ID/g

Compound: QDVNTAVAW-NH2 [A9]
- stability on incubation in vitro with blood serum [2]: high stability

Compound: ^111In-DTPA-SA9: 111In-labeled scrambled conjugate, same amino acids as A9 but in a different order ({DTPA}-WAVQNTDAV-NH2; also: DTPA complexed with 111In)
- Kd [3]: 103 nM
